Experimental data taken from paper PMC3229523, “Identification of Lactoferricin B Intracellular Targets Using an Escherichia coli Proteome Chip” (PLoS ONE, 2011).
Ends that are not written are not given here. * marks the point of attachment. Biotin = O=C1N[C@H]2[C@H](CS[C@H]2CCCCC(=O)*)N1

Legend:
Experiment in all cases: peptide or protein array; E. coli proteome chip: purified His-tagged proteins printed in duplicate on Fullmoon slides, blocked with 1% BSA; 10 nM N-terminal biotinylated LfcinB with 1% BSA, room temperature, 1 h; detected with DyLight 649-labeled streptavidin, ratio to DyLight 549-labeled anti-His antibody; ProCAT normalisation, local cut-off; triplicate chips
Settings in all cases: both partners purified
NrdB = biological target: T1, NrdB (E. coli K-12, UniProt P69924 1-376)
T1 construct: NrdB, E. coli K-12
T1 sequence (looked up): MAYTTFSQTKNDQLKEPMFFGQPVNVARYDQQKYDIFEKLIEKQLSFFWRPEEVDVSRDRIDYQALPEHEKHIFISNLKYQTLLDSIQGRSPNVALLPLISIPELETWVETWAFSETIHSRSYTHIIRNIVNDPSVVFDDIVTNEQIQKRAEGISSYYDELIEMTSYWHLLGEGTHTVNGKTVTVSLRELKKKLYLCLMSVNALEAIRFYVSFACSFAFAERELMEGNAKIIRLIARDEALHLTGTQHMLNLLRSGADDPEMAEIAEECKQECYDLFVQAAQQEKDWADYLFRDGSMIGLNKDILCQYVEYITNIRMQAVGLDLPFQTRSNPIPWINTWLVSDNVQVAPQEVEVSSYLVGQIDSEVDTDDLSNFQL

YheH = biological target: T2, YheH (E. coli K-12, UniProt P45760 7-125)
T2 construct: YheH, E. coli K-12
T2 sequence (looked up): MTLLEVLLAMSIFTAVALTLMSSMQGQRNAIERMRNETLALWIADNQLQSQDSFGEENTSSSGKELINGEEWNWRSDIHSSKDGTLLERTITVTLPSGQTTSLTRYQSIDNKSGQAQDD

BasR = biological target: T3, BasR (E. coli K-12, UniProt P30843 1-222)
T3 construct: BasR, E. coli K-12
T3 sequence (looked up): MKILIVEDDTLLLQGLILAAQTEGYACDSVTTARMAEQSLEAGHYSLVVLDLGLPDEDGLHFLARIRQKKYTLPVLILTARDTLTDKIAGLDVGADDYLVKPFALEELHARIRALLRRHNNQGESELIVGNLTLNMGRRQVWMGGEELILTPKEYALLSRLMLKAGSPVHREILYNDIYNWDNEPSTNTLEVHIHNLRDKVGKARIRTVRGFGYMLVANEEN

YcgW = biological target: T4, YcgW (E. coli K-12, UniProt P75987 1-107)
T4 construct: YcgW, E. coli K-12
T4 sequence (looked up): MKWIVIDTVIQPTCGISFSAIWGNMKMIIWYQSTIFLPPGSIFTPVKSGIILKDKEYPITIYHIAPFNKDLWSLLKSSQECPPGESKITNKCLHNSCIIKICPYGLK

YfbO = biological target: T5, YfbO (E. coli K-12, UniProt P76485 1-140)
T5 construct: YfbO, E. coli K-12
T5 sequence (looked up): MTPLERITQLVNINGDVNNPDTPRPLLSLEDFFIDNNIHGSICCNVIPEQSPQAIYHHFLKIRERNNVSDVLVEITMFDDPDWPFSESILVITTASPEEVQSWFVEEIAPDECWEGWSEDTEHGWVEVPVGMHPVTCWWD

[1] = biological target: T6, phosphoenolpyruvate carboxylase (E. coli K-12, UniProt P00864 1-883)
T6 construct: Ppc, phosphoenolpyruvate carboxylase, E. coli K-12; also called Ppc
T6 sequence (looked up): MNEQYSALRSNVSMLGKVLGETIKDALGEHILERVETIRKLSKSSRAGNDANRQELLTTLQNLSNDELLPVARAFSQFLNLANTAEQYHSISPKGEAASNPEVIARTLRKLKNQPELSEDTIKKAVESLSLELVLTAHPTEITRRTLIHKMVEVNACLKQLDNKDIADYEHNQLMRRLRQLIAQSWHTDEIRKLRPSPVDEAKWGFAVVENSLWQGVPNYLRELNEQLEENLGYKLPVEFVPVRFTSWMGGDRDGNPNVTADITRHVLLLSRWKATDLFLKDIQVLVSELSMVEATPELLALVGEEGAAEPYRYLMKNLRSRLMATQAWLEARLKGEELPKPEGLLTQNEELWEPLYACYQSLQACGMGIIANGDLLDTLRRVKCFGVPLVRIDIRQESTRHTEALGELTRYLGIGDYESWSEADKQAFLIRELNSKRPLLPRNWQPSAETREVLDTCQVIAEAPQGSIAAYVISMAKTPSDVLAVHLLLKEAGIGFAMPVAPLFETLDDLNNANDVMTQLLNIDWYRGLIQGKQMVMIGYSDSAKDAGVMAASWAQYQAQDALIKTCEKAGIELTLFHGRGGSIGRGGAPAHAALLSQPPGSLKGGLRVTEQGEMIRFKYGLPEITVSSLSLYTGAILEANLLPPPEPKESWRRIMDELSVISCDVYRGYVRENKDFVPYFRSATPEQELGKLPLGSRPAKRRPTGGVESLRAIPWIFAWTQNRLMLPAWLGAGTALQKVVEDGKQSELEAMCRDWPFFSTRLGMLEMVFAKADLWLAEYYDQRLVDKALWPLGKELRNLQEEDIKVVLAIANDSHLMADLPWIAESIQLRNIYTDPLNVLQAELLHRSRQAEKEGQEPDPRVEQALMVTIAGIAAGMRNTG

Measured: binding result

B1: N-terminal biotinylated Lactoferricin B (peptide, UniProt P24627 36-60, looked up)
peptide: Biotin-FKCRRWQWRMKKLGAPSITCVRRAF
modifications: ends and bridges not checked
notes: lactoferricin B (LfcinB), cationic antimicrobial peptide of 25 amino acids; also called biotinylated LfcinB; biotin-labeled LfcinB; source: bought: Kelowna Inc
binds: all assays above
